Literature values, collected in PMC9583766.

Target: plasma prekallikrein (PK) (Homo sapiens) (UniProt P03952)
Sequence of UniProt P03952 (P03952 20-638): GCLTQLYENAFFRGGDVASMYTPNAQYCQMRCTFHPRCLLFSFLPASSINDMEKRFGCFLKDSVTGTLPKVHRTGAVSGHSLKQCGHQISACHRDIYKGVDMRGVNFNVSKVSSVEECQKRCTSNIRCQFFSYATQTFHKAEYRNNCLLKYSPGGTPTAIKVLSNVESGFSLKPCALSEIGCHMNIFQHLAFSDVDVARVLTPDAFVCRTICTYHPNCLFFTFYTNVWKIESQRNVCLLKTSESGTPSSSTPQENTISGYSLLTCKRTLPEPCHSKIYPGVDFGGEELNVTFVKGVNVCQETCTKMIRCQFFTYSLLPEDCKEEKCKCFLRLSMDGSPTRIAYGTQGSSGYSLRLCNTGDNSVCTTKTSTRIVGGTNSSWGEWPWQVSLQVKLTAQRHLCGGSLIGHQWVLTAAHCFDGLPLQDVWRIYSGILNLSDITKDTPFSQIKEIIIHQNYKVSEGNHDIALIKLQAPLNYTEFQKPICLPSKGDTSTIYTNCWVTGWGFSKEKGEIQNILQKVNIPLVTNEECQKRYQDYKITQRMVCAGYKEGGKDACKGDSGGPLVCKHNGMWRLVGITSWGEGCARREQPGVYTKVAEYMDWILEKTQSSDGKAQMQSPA

Kd: 12 nM
Substance: high-molecular-weight kininogen (nHK) (from UniProt P01042)
